Measurements taken from FireProtDB (doi:10.1074/jbc.m110728200).

B1: Lysozyme C, P61626 (parent)
chain: MKALIVLGLVLLSVTVQGKVFERCELARTLKRLGMDGYRGISLANWMCLAKWESGYNTRATNYNAGDRSTDYGIFQINSRYWCNDGKTPGAVNACHLSCSALLQDNIADAVACAKRVVRDPQGIRAWVAWRNRCQNRDVRQYVQGCGV

Variants of: B1
Details: Homo sapiens; pH 2.65; Thermal; DSC; Gly-HCl 0.05 M; structure 1LZ1; whole UniProt chain shown

**Q.** Which Tm does the source give for V92N here?
**A.** 63 °C

**Q.** And the “unfolding enthalpy (calorimetric)” value?
**A.** 110 kcal/mol

**Q.** And the “unfolding enthalpy (van 't Hoff)” value?
**A.** 114 kcal/mol

Same assay, conditions: Homo sapiens; pH 2.7; 64.9 °C; Thermal; DSC; Gly-HCl 0.05 M; structure 1LZ1; whole UniProt chain shown

**Q.** With V92N as the variant, how does the “ddG of mutation (higher = less stable)” value read?
**A.** 0.33 kcal/mol

**Q.** What about the “heat capacity change of unfolding” value of the same variant?
**A.** 1.1 kcal/mol/K

**Q.** What about the “unfolding enthalpy (calorimetric)” value of the same variant?
**A.** 115 kcal/mol

**Q.** Which “ddG of mutation (higher = less stable)” value does the source give for V92R here?
**A.** 0.07 kcal/mol

**Q.** What about the “heat capacity change of unfolding” value of the same variant?
**A.** 1.67 kcal/mol/K

**Q.** What about the “unfolding enthalpy (calorimetric)” value of the same variant?
**A.** 104 kcal/mol

**Q.** What does the source list for V92Y?
**A.** ddG of mutation (higher = less stable): 0.24 kcal/mol; heat capacity change of unfolding: 1.65 kcal/mol/K; unfolding enthalpy (calorimetric): 107 kcal/mol

**Q.** What does the source list for V20D?
**A.** ddG of mutation (higher = less stable): 1.43 kcal/mol; heat capacity change of unfolding: 1.58 kcal/mol/K; unfolding enthalpy (calorimetric): 111 kcal/mol

**Q.** Which “heat capacity change of unfolding” value does the source give for V20Y here?
**A.** 1.82 kcal/mol/K

**Q.** And the “unfolding enthalpy (calorimetric)” value?
**A.** 106 kcal/mol

**Q.** What does the source list for V128R?
**A.** ddG of mutation (higher = less stable): -0.88 kcal/mol; unfolding enthalpy (calorimetric): 101 kcal/mol

**Q.** Which “ddG of mutation (higher = less stable)” value does the source give for V128Y here?
**A.** 0.14 kcal/mol

**Q.** What about the “unfolding enthalpy (calorimetric)” value of the same variant?
**A.** 108 kcal/mol

Same assay, conditions: Homo sapiens; pH 2.7; Thermal; DSC; Gly-HCl 0.05 M; structure 1LZ1; whole UniProt chain shown

**Q.** Which Tm does the source give for V92N here?
**A.** 63.9 °C

**Q.** What about the “change of melting temperature, mutant - wild type (higher = more stable)” value (“change of melting temperature, mutant” for short) of the same variant?
**A.** -1 °C

**Q.** For V92R, which Tm is on record?
**A.** 64.6 °C

**Q.** And the “change of melting temperature, mutant” value?
**A.** -0.3 °C

**Q.** Which results are given for V92Y?
**A.** Tm: 64 °C; change of melting temperature, mutant - wild type (higher = more stable): -0.9 °C

**Q.** For V20D, which Tm is on record?
**A.** 60.4 °C

**Q.** And the “change of melting temperature, mutant” value?
**A.** -4.5 °C

**Q.** Which results are given for V128R?
**A.** Tm: 67.8 °C; change of melting temperature, mutant - wild type (higher = more stable): 2.9 °C

**Q.** Which Tm does the source give for V128Y here?
**A.** 64.4 °C

**Q.** What about the “change of melting temperature, mutant” value of the same variant?
**A.** -0.5 °C

Same assay, conditions: Homo sapiens; pH 2.84; Thermal; DSC; Gly-HCl 0.05 M; structure 1LZ1; whole UniProt chain shown

**Q.** For V92N, which Tm is on record?
**A.** 66.2 °C

**Q.** What about the “unfolding enthalpy (calorimetric)” value of the same variant?
**A.** 114 kcal/mol

**Q.** And the “unfolding enthalpy (van 't Hoff)” value?
**A.** 116 kcal/mol

Same assay, conditions: Homo sapiens; pH 2.66; Thermal; DSC; Gly-HCl 0.05 M; structure 1LZ1; whole UniProt chain shown

**Q.** What does the source list for V92R?
**A.** Tm: 63.8 °C; unfolding enthalpy (calorimetric): 102 kcal/mol; unfolding enthalpy (van 't Hoff): 100 kcal/mol

**Q.** For V20D, which Tm is on record?
**A.** 59.6 °C

**Q.** What about the “unfolding enthalpy (calorimetric)” value of the same variant?
**A.** 103 kcal/mol

**Q.** What about the “unfolding enthalpy (van 't Hoff)” value of the same variant?
**A.** 99.9 kcal/mol

**Q.** What does the source list for V128Y?
**A.** Tm: 63.3 °C; unfolding enthalpy (calorimetric): 106 kcal/mol; unfolding enthalpy (van 't Hoff): 105 kcal/mol

Same assay, conditions: Homo sapiens; pH 2.85; Thermal; DSC; Gly-HCl 0.05 M; structure 1LZ1; whole UniProt chain shown

**Q.** What does the source list for V92R?
**A.** Tm: 67.3 °C; unfolding enthalpy (calorimetric): 108 kcal/mol; unfolding enthalpy (van 't Hoff): 105 kcal/mol

Same assay, conditions: Homo sapiens; pH 3; Thermal; DSC; Gly-HCl 0.05 M; structure 1LZ1; whole UniProt chain shown

**Q.** For V92R, which Tm is on record?
**A.** 69.5 °C

**Q.** What about the “unfolding enthalpy (calorimetric)” value of the same variant?
**A.** 112 kcal/mol

**Q.** And the “unfolding enthalpy (van 't Hoff)” value?
**A.** 109 kcal/mol

Same assay, conditions: Homo sapiens; pH 3.18; Thermal; DSC; Gly-HCl 0.05 M; structure 1LZ1; whole UniProt chain shown

**Q.** With V92R as the variant, how does the Tm read?
**A.** 72.8 °C

**Q.** What about the “unfolding enthalpy (calorimetric)” value of the same variant?
**A.** 117 kcal/mol

**Q.** What about the “unfolding enthalpy (van 't Hoff)” value of the same variant?
**A.** 114 kcal/mol

**Q.** With V128Y as the variant, how does the Tm read?
**A.** 72.2 °C

**Q.** And the “unfolding enthalpy (calorimetric)” value?
**A.** 120 kcal/mol

**Q.** What about the “unfolding enthalpy (van 't Hoff)” value of the same variant?
**A.** 121 kcal/mol

Same assay, conditions: Homo sapiens; pH 3.22; Thermal; DSC; Gly-HCl 0.05 M; structure 1LZ1; whole UniProt chain shown

**Q.** For V92R, which Tm is on record?
**A.** 73.2 °C

**Q.** And the “unfolding enthalpy (calorimetric)” value?
**A.** 118 kcal/mol

**Q.** And the “unfolding enthalpy (van 't Hoff)” value?
**A.** 116 kcal/mol

Same assay, conditions: Homo sapiens; pH 2.67; Thermal; DSC; Gly-HCl 0.05 M; structure 1LZ1; whole UniProt chain shown

**Q.** What does the source list for V92Y?
**A.** Tm: 63.3 °C; unfolding enthalpy (calorimetric): 104 kcal/mol; unfolding enthalpy (van 't Hoff): 104 kcal/mol

Same assay, conditions: Homo sapiens; pH 3.02; Thermal; DSC; Gly-HCl 0.05 M; structure 1LZ1; whole UniProt chain shown

**Q.** Which results are given for V92Y?
**A.** Tm: 70 °C; unfolding enthalpy (calorimetric): 115 kcal/mol; unfolding enthalpy (van 't Hoff): 116 kcal/mol

Same assay, conditions: Homo sapiens; pH 3.21; Thermal; DSC; Gly-HCl 0.05 M; structure 1LZ1; whole UniProt chain shown

**Q.** With V92Y as the variant, how does the Tm read?
**A.** 73.3 °C

**Q.** What about the “unfolding enthalpy (calorimetric)” value of the same variant?
**A.** 120 kcal/mol

**Q.** What about the “unfolding enthalpy (van 't Hoff)” value of the same variant?
**A.** 120 kcal/mol

**Q.** Which Tm does the source give for V20Y here?
**A.** 72 °C

**Q.** And the “unfolding enthalpy (calorimetric)” value?
**A.** 120 kcal/mol

**Q.** What about the “unfolding enthalpy (van 't Hoff)” value of the same variant?
**A.** 120 kcal/mol

Same assay, conditions: Homo sapiens; pH 3.26; Thermal; DSC; Gly-HCl 0.05 M; structure 1LZ1; whole UniProt chain shown

**Q.** For V92Y, which Tm is on record?
**A.** 74.1 °C

**Q.** What about the “unfolding enthalpy (calorimetric)” value of the same variant?
**A.** 122 kcal/mol

**Q.** What about the “unfolding enthalpy (van 't Hoff)” value of the same variant?
**A.** 123 kcal/mol

Same assay, conditions: Homo sapiens; pH 2.96; Thermal; DSC; Gly-HCl 0.05 M; structure 1LZ1; whole UniProt chain shown

**Q.** Which results are given for V20D?
**A.** Tm: 64.9 °C; unfolding enthalpy (calorimetric): 112 kcal/mol; unfolding enthalpy (van 't Hoff): 108 kcal/mol

Same assay, conditions: Homo sapiens; pH 3.01; Thermal; DSC; Gly-HCl 0.05 M; structure 1LZ1; whole UniProt chain shown

**Q.** Which results are given for V20D?
**A.** Tm: 65.7 °C; unfolding enthalpy (calorimetric): 113 kcal/mol; unfolding enthalpy (van 't Hoff): 109 kcal/mol

**Q.** What does the source list for V128R?
**A.** Tm: 72.8 °C; unfolding enthalpy (calorimetric): 114 kcal/mol; unfolding enthalpy (van 't Hoff): 116 kcal/mol

Same assay, conditions: Homo sapiens; pH 3.14; Thermal; DSC; Gly-HCl 0.05 M; structure 1LZ1; whole UniProt chain shown

**Q.** Which Tm does the source give for V20D here?
**A.** 68 °C

**Q.** What about the “unfolding enthalpy (calorimetric)” value of the same variant?
**A.** 116 kcal/mol

**Q.** And the “unfolding enthalpy (van 't Hoff)” value?
**A.** 113 kcal/mol

Same assay, conditions: Homo sapiens; pH 3.3; Thermal; DSC; Gly-HCl 0.05 M; structure 1LZ1; whole UniProt chain shown

**Q.** With V20D as the variant, how does the Tm read?
**A.** 70.2 °C

**Q.** And the “unfolding enthalpy (calorimetric)” value?
**A.** 120 kcal/mol

**Q.** What about the “unfolding enthalpy (van 't Hoff)” value of the same variant?
**A.** 118 kcal/mol

Same assay, conditions: Homo sapiens; pH 2.83; Thermal; DSC; Gly-HCl 0.05 M; structure 1LZ1; whole UniProt chain shown

**Q.** What does the source list for V20Y?
**A.** Tm: 65.9 °C; unfolding enthalpy (calorimetric): 108 kcal/mol; unfolding enthalpy (van 't Hoff): 110 kcal/mol

Same assay, conditions: Homo sapiens; pH 2.91; Thermal; DSC; Gly-HCl 0.05 M; structure 1LZ1; whole UniProt chain shown

**Q.** With V20Y as the variant, how does the Tm read?
**A.** 67.4 °C

**Q.** What about the “unfolding enthalpy (calorimetric)” value of the same variant?
**A.** 111 kcal/mol

**Q.** What about the “unfolding enthalpy (van 't Hoff)” value of the same variant?
**A.** 112 kcal/mol

Same assay, conditions: Homo sapiens; pH 3.2; Thermal; DSC; Gly-HCl 0.05 M; structure 1LZ1; whole UniProt chain shown

**Q.** For V20Y, which Tm is on record?
**A.** 72.3 °C

**Q.** And the “unfolding enthalpy (calorimetric)” value?
**A.** 119 kcal/mol

**Q.** What about the “unfolding enthalpy (van 't Hoff)” value of the same variant?
**A.** 120 kcal/mol

Same assay, conditions: Homo sapiens; pH 3.24; Thermal; DSC; Gly-HCl 0.05 M; structure 1LZ1; whole UniProt chain shown

**Q.** With V20Y as the variant, how does the Tm read?
**A.** 73 °C

**Q.** And the “unfolding enthalpy (calorimetric)” value?
**A.** 121 kcal/mol

**Q.** What about the “unfolding enthalpy (van 't Hoff)” value of the same variant?
**A.** 122 kcal/mol

Same assay, conditions: Homo sapiens; pH 2.8; Thermal; DSC; Gly-HCl 0.05 M; structure 1LZ1; whole UniProt chain shown

**Q.** With V128R as the variant, how does the Tm read?
**A.** 69.3 °C

**Q.** And the “unfolding enthalpy (calorimetric)” value?
**A.** 108 kcal/mol

**Q.** What about the “unfolding enthalpy (van 't Hoff)” value of the same variant?
**A.** 110 kcal/mol

Same assay, conditions: Homo sapiens; pH 3.15; Thermal; DSC; Gly-HCl 0.05 M; structure 1LZ1; whole UniProt chain shown

**Q.** For V128R, which Tm is on record?
**A.** 75 °C

**Q.** What about the “unfolding enthalpy (calorimetric)” value of the same variant?
**A.** 117 kcal/mol

**Q.** What about the “unfolding enthalpy (van 't Hoff)” value of the same variant?
**A.** 120 kcal/mol

Same assay, conditions: Homo sapiens; pH 2.98; Thermal; DSC; Gly-HCl 0.05 M; structure 1LZ1; whole UniProt chain shown

**Q.** With V128Y as the variant, how does the Tm read?
**A.** 69.3 °C

**Q.** And the “unfolding enthalpy (calorimetric)” value?
**A.** 114 kcal/mol

**Q.** And the “unfolding enthalpy (van 't Hoff)” value?
**A.** 114 kcal/mol

Same assay, conditions: Homo sapiens; pH 3.38; Thermal; DSC; Gly-HCl 0.05 M; structure 1LZ1; whole UniProt chain shown

**Q.** Which Tm does the source give for V128Y here?
**A.** 75.4 °C

**Q.** What about the “unfolding enthalpy (calorimetric)” value of the same variant?
**A.** 125 kcal/mol

**Q.** And the “unfolding enthalpy (van 't Hoff)” value?
**A.** 125 kcal/mol
